Read-outs that look alike come from different tables or passages of the source.
Key:
S2hlx-Ex8-Trx = target: T1, S2hlx-Ex8-Trx; test: SPR, mAb captured, antigen as analyte
T1 chain: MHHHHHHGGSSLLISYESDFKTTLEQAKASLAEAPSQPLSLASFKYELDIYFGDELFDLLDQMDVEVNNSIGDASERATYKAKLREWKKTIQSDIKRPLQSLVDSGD

S2hlx-Ex34 [1] = target: T2, S2hlx-Ex34; test: SPR, mAb captured, antigen as analyte
T2 chain: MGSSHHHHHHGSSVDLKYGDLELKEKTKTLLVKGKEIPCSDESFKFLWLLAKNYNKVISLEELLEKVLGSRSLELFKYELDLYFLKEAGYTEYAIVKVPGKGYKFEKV

S2hlx-Ex8-Trx F1148A = test: ELISA; antigen coated, mAb titrated
S2hlx-13 = target: T3, S2hlx-13; test: SPR, mAb captured, antigen as analyte
T3 epitope scaffold: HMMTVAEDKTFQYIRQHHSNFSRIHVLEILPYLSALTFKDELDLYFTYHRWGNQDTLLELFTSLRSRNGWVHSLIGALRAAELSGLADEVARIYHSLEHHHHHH

S2hlx-4 [2] = test: SPR, mAb captured, antigen as analyte
S2hlx-14 = test: SPR, mAb captured, antigen as analyte
S2hlx-Ex37 = target: T4, S2hlx-Ex37; test: SPR, single cycle; mAb captured on Protein A, epitope scaffold as analyte
T4 chain: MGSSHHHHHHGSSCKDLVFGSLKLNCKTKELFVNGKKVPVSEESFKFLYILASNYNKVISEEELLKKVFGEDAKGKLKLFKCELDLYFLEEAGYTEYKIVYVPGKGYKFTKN

S2hlx-Ex54 = target: T5, S2hlx-Ex54; test: as above
T5 chain: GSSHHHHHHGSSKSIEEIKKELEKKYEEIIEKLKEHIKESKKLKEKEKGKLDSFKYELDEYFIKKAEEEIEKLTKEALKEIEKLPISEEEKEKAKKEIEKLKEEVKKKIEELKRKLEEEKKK

S2hlx-Ex46 = target: T6, S2hlx-Ex46; test: as above
T6 epitope scaffold: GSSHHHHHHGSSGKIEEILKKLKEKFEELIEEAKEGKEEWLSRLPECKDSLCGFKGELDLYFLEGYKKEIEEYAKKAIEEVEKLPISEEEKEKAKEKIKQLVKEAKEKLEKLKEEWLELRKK

S2hlx-Ex15 = target: T7, S2hlx-Ex15; test: SPR, mAb captured, antigen as analyte
T7 chain: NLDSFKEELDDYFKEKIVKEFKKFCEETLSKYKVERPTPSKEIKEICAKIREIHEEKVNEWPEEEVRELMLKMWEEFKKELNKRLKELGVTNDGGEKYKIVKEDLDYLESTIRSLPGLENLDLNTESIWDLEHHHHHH

S2hlx-Ex20 = target: T8, S2hlx-Ex20; test: SPR, mAb captured, antigen as analyte
T8 chain: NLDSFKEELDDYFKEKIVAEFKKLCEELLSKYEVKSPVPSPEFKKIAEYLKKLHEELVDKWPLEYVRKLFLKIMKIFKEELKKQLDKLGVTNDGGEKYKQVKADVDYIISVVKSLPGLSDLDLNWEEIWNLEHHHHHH

S2hlx-Ex17 = target: T9, S2hlx-Ex17; test: SPR, mAb captured, antigen as analyte
T9 chain: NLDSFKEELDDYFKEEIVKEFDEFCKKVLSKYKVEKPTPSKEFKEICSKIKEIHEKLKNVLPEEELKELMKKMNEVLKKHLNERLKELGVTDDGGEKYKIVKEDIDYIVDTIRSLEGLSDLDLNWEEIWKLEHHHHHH

S2hlx-Ex34 [3] = target: T2, S2hlx-Ex34; test: ELISA; antigen coated, mAb titrated
S2hlx-Ex34 F1148A = target: T10, S2hlx-Ex34 F1148A; test: ELISA; antigen coated, mAb titrated
T10 epitope scaffold: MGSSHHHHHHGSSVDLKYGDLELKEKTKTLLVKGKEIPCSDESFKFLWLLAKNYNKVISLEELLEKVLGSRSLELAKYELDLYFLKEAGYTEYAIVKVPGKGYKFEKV

S2hlx-Ex34 L1145A = target: T11, S2hlx-Ex34 L1145A; test: ELISA; antigen coated, mAb titrated
T11 epitope scaffold: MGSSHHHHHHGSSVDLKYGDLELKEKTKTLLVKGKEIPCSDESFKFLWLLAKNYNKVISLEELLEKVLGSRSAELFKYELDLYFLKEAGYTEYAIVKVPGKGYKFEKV

CC19 LA = test: ELISA, coated antigen, mAb titrated
S2hlx-4 [4] = test: SPR, mAb captured, antigen as analyte; remark: listed apart in the source
S2hlx-Ex4 = target: T12, S2hlx-Ex4; test: ELISA, coated antigen, mAb titrated
T12 construct: backbone grafting design
T12 chain: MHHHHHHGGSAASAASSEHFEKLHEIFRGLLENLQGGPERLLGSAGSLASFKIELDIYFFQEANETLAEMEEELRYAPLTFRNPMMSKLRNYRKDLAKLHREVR

S2hlx-Ex3 = target: T13, S2hlx-Ex3; test: ELISA, coated antigen, mAb titrated
T13 construct: backbone grafting design
T13 chain: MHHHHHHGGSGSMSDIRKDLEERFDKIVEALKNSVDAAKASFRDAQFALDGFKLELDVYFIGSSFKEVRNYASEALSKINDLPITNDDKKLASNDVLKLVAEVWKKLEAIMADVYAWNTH

S2hlx-Ex2 = target: T14, S2hlx-Ex2; test: ELISA, coated antigen, mAb titrated
T14 construct: backbone grafting design
T14 chain: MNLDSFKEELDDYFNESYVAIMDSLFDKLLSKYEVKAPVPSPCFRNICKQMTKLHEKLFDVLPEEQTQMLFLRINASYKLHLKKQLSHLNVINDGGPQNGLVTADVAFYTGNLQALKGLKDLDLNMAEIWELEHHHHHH

S2hlx-4, sequence (chain, as listed by the source): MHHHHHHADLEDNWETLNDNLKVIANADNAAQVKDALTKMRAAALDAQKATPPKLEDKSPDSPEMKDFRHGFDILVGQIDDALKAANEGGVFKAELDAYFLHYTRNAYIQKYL

B1: S2P6 mAb (antibody, V domains shown)
VH: EVQLVQSGAEVKKPGASVKVSCKASGYTFTSQYMHWVRQAPGQGLEWIGIINPSGVHTSYAQKFQGRVTLTRDTSTSTLYMELSSLRSEDTAVYYCARGSPKGAFDYWGQGTLVTVSS
VL: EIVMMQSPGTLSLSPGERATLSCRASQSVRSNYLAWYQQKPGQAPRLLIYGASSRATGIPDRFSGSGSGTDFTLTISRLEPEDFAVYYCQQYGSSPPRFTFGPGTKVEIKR
With B1 the Kd (S2hlx-Ex8-Trx) was 568 nM, the Kd (S2hlx-Ex34 [1]) was 143 nM and the “EC50 (read off the curve)” value (S2hlx-Ex8-Trx F1148A) was ~0.04 µg/mL. It also gave a Kd (S2hlx-13) of 83 nM, a Kd (S2hlx-4 [2]) of 47.7 nM and a Kd (S2hlx-14) of 30 nM. The Kd (S2hlx-Ex37) was 664 nM, the Kd (S2hlx-Ex54) was 45.6 nM and the Kd (S2hlx-Ex46) was 296 nM. The Kd (S2hlx-Ex15) was 6 nM, the Kd (S2hlx-Ex20) was 10.7 nM and the Kd (S2hlx-Ex17) was 29.6 nM. The “EC50 (read off the curve)” value (S2hlx-Ex34 [3]) was ~0.02 µg/mL, the “EC50 (read off the curve)” value (S2hlx-Ex34 F1148A) was ~0.09 µg/mL and the “EC50 (read off the curve)” value (S2hlx-Ex34 L1145A) was ~0.02 µg/mL. The “EC50 (read off the curve)” value (CC19 LA) was ~0.02 µg/mL, the Kd (S2hlx-4 [4]) was 47.7 nM and the “EC50 (read off the curve)” value (S2hlx-Ex4) was ~0.07 µg/mL. The “EC50 (read off the curve)” value (S2hlx-Ex3) was ~0.06 µg/mL and the “EC50 (read off the curve)” value (S2hlx-Ex2) was ~0.07 µg/mL.

From patent publication US20240285753A1 (DUKE UNIVERSITY, published 2024)
